Measured values reported in paper PMC4360740, “Novel Type II and Monomeric NAD^+ Specific Isocitrate Dehydrogenases: Phylogenetic Affinity, Enzymatic Characterization, and Evolutionary Implication” (Scientific Reports, 2015).
Where two headings read alike, the source gives them in different places.

Experiments:
[1] = target: Campylobacter sp. FOBRC14 isocitrate dehydrogenase (Campylobacter sp. FOBRC14); assay: SEC; Superdex 200 10/300 column, 0.05 M potassium phosphate pH 7.0, 0.15 M NaCl, 0.01% sodium azide, flow 0.5 ml/min; mass estimated against protein standards
[2] = system: NC(=O)c1ccc[n+]([C@@H]2O[C@H](COP(=O)(O)OP(=O)(O)OC[C@H]3O[C@@H](n4cnc5c(N)ncnc54)[C@H](O)[C@@H]3O)[C@@H](O)[C@H]2O)c1; assay: purified protein; conditions: 1.0 mM isocitrate fixed, 35 mM Tris-HCl pH 7.5, 2 mM MgCl2 or MnCl2, 25°C, varied: cofactor
[3] = system: NC(=O)c1ccc[n+]([C@@H]2O[C@H](COP(=O)(O)OP(=O)(O)OC[C@H]3O[C@@H](n4cnc5c(N)ncnc54)[C@H](OP(=O)(O)O)[C@@H]3O)[C@@H](O)[C@H]2O)c1; assay: purified protein; conditions: 1.0 mM isocitrate fixed, 35 mM Tris-HCl pH 7.5, 2 mM MgCl2 or MnCl2, 25°C, varied: cofactor
CaIDH [4] = system: T1, CaIDH; conditions: read-out: NAD^+ / Km; 1.0 mM isocitrate fixed; 35 mM Tris-HCl pH 7.5, 2 mM MgCl2 or MnCl2, 25°C; Methods print the second mutation as Asp594Arg
T1 construct: gene IDH

CaIDH [5] = system: T1, CaIDH; conditions: read-out: NADP^+ / Km; 1.0 mM isocitrate fixed; 35 mM Tris-HCl pH 7.5, 2 mM MgCl2 or MnCl2, 25°C; Methods print the second mutation as Asp594Arg
[6] = target: Ostreococcus lucimarinus CCE9901 isocitrate dehydrogenase (Ostreococcus lucimarinus CCE9901); assay: SEC; Superdex 200 10/300 column, 0.05 M potassium phosphate pH 7.0, 0.15 M NaCl, 0.01% sodium azide, flow 0.5 ml/min; mass estimated against protein standards
[7] = target: Ostreococcus lucimarinus CCE9901 isocitrate dehydrogenase (Ostreococcus lucimarinus CCE9901); assay: MALDI-TOF/TOF mass spectrometry; AB SCIEX MALDI TOF-TOF 5800, linear high mass positive-ion mode, SA matrix, TFA as ionization auxiliary reagent
purified protein [8] = substrate: NC(=O)c1ccc[n+]([C@@H]2O[C@H](COP(=O)(O)OP(=O)(O)OC[C@H]3O[C@@H](n4cnc5c(N)ncnc54)[C@H](O)[C@@H]3O)[C@@H](O)[C@H]2O)c1; assay: purified protein; assay type: biochemical, Ostreococcus sp. 'lucimarinus'; conditions: 1.0 mM isocitrate fixed, 35 mM Tris-HCl pH 7.5, 2 mM MgCl2 or MnCl2, 25°C, varied: cofactor
purified protein [9] = substrate: NC(=O)c1ccc[n+]([C@@H]2O[C@H](COP(=O)(O)OP(=O)(O)OC[C@H]3O[C@@H](n4cnc5c(N)ncnc54)[C@H](OP(=O)(O)O)[C@@H]3O)[C@@H](O)[C@H]2O)c1; assay: purified protein; assay type: biochemical, Ostreococcus sp. 'lucimarinus'; conditions: 1.0 mM isocitrate fixed, 35 mM Tris-HCl pH 7.5, 2 mM MgCl2 or MnCl2, 25°C, varied: cofactor
purified protein [10] = substrate: NC(=O)c1ccc[n+]([C@@H]2O[C@H](COP(=O)(O)OP(=O)(O)OC[C@H]3O[C@@H](n4cnc5c(N)ncnc54)[C@H](O)[C@@H]3O)[C@@H](O)[C@H]2O)c1; assay: purified protein; assay type: biochemical, Micromonas commoda; conditions: 1.0 mM isocitrate fixed, 35 mM Tris-HCl pH 7.5, 2 mM MgCl2 or MnCl2, 25°C, varied: cofactor
purified protein [11] = substrate: NC(=O)c1ccc[n+]([C@@H]2O[C@H](COP(=O)(O)OP(=O)(O)OC[C@H]3O[C@@H](n4cnc5c(N)ncnc54)[C@H](OP(=O)(O)O)[C@@H]3O)[C@@H](O)[C@H]2O)c1; assay: purified protein; assay type: biochemical, Micromonas commoda; conditions: 1.0 mM isocitrate fixed, 35 mM Tris-HCl pH 7.5, 2 mM MgCl2 or MnCl2, 25°C, varied: cofactor

“Campylobacter sp. FOBRC14 isocitrate dehydrogenase (enzyme)” was tested, and the fraction eluting as dimer [1] was under 5%.

With CaIDH (Campylobacter sp. FOBRC14) the Km [2] was 28.9 ± 4.5 µM, the kcat [2] was 7 ± 0.8 s⁻¹ and the kcat/Km [2] was 242000 M⁻¹ s⁻¹. For the same molecule, the Km [3] was 513.2 ± 14.9 µM, the kcat [3] was 1.9 ± 0.1 s⁻¹ and the kcat/Km [3] was 4000 M⁻¹ s⁻¹.

NC(=O)c1ccc[n+]([C@@H]2O[C@H](COP(=O)(O)OP(=O)(O)OC[C@H]3O[C@@H](n4cnc5c(N)ncnc54)[C@H](O)[C@@H]3O)[C@@H](O)[C@H]2O)c1 [NAD^+] gave a Km (CaIDH [4]) of 493 ± 52.5 µM.

Molecule NC(=O)c1ccc[n+]([C@@H]2O[C@H](COP(=O)(O)OP(=O)(O)OC[C@H]3O[C@@H](n4cnc5c(N)ncnc54)[C@H](OP(=O)(O)O)[C@@H]3O)[C@@H](O)[C@H]2O)c1 [NADP^+] has a Km (CaIDH [5]) of 11.4 ± 4.6 µM.

“Ostreococcus lucimarinus CCE9901 isocitrate dehydrogenase (enzyme)” was tested, and the stoichiometry N [6] was 2 and the stoichiometry N [7] was 2.

B1: OlIDH (Ostreococcus lucimarinus CCE9901) (protein)
chain: MSANASKITAAPMVYVRGEEMTAYVMDLIRAKWIEPRVDTTAWREFDLRAKNRDDTEDQVLRDVIEAGKAVKAIFKEPTVTPTADQVKRLGLRKSWGSPNGAMRRGWNGITISRDTIHIDGVELGYKKPVFFERHAVGGEYAAGYKNVGKGTLVTTFTPSEGPDAGKPVEVDSRTITDNEAAVVTYHNPYDNVHELARFFFGRCLEAKITPYVVTKKTVFKWQEPFWQIMKKVFDEEYKSKFVDAGVMKSGDELVHLLSDAATMKLVQWRQGGFGMAAHNYDGDVLTDELAQIHKSPGFITSNLVGVDENGTLIKEFEASHGTVADMDEARLRGEETSLNPLGMVEGLIGAMNHAADVHNVDKERTLAFTAKMRAVIHQLFREGKGTRDLSGPSGLTTEQFVDAVAERL
notes: full-length synthetic codon-optimised gene in pET-28b(+) NdeI/XhoI, 6xHis-tagged, E. coli Rosetta (DE3); about 46 kDa subunit, 415 residues as used in CD calculation; homodimer 93 kDa by MALDI
B1 gave a Km (purified protein [8]) of 136.6 ± 13.6 µM, a kcat (purified protein [8]) of 60.6 ± 3.8 s⁻¹ and a kcat/Km (purified protein [8]) of 444000 M⁻¹ s⁻¹. For the same molecule, the Km (purified protein [9]) was 2211 ± 75 µM, the kcat (purified protein [9]) was 10 ± 1.6 s⁻¹ and the kcat/Km (purified protein [9]) was 4500 M⁻¹ s⁻¹.

B2: MiIDH (Micromonas commoda) (protein)
chain: MAAASAGGKIQAAPMVYVAGEEMTRYTMDLILERWIKPHVDTSAWEFFDLRAKNRDDTEDQVLRDVISAGARLKAIFKEPTITPTADQVKRLGLKKAWGSPNGAMRRGWNGITISRDTIHIDGVELGYKKPVFFERHAVGGEYSAGYKIVGKGKLTTTFVPEAGGEPIVVDDRKITDDLNAVVAYHNPLDNVAHLARIFFGRCLDAGIVPYVVTKKTVFKWQEPFWESMKTVFDAEFKQKFYEKGVMKPGSELVHLLSDAATMKLVVWTDGGFGMAAHNYDGDVLTDELAQVHKSPGFITSNLVGVDDNGTLIKEFEASHGTVTDMDEARLRGEETSLNPLGMVEGLIGAMNHAADVHGGSSGVHPWTGKLRAVIHKLFREGRGTRDLCGAGGLTTEQFIDAVAEEL
notes: full-length synthetic codon-optimised gene in pET-28b(+) NdeI/XhoI, 6xHis-tagged, E. coli Rosetta (DE3); described as homodimeric
For B2, the Km (purified protein [10]) was 126 ± 5.3 µM, the kcat (purified protein [10]) was 22.5 ± 2 s⁻¹ and the kcat/Km (purified protein [10]) was 179000 M⁻¹ s⁻¹. The Km (purified protein [11]) was 1827 ± 42.4 µM, the kcat (purified protein [11]) was 1.4 ± 0.2 s⁻¹ and the kcat/Km (purified protein [11]) was 800 M⁻¹ s⁻¹.

B3: OlIDH (Ostreococcus lucimarinus CCE9901; D326R/M327H) (protein)
chain: MSANASKITAAPMVYVRGEEMTAYVMDLIRAKWIEPRVDTTAWREFDLRAKNRDDTEDQVLRDVIEAGKAVKAIFKEPTVTPTADQVKRLGLRKSWGSPNGAMRRGWNGITISRDTIHIDGVELGYKKPVFFERHAVGGEYAAGYKNVGKGTLVTTFTPSEGPDAGKPVEVDSRTITDNEAAVVTYHNPYDNVHELARFFFGRCLEAKITPYVVTKKTVFKWQEPFWQIMKKVFDEEYKSKFVDAGVMKSGDELVHLLSDAATMKLVQWRQGGFGMAAHNYDGDVLTDELAQIHKSPGFITSNLVGVDENGTLIKEFEASHGTVARHDEARLRGEETSLNPLGMVEGLIGAMNHAADVHNVDKERTLAFTAKMRAVIHQLFREGKGTRDLSGPSGLTTEQFVDAVAERL
notes: as for B1
With B3 the Km (purified protein [8]) was 2941.3 ± 75.8 µM, the kcat (purified protein [8]) was 29.1 ± 7.9 s⁻¹ and the kcat/Km (purified protein [8]) was 10000 M⁻¹ s⁻¹. It also gave a Km (purified protein [9]) of 8.2 ± 1.9 µM, a kcat (purified protein [9]) of 1.8 ± 0.2 s⁻¹ and a kcat/Km (purified protein [9]) of 220000 M⁻¹ s⁻¹.
